Results taken from patent US5683983.

B1: D G Y V C V E W A R C P M C T (SEQ ID NO:8) (peptide)
peptide: DGYVCVEWARCPMCT
B2: D G Y V C V E W A R C P T C K (SEQ ID NO:7) (peptide)
peptide: DGYVCVEWARCPTCK
B3: D G F V C V E W A R C P N C R (SEQ ID NO:9) (peptide)
peptide: DGFVCVEWARCPNCR

Each binder was assayed against extracellular domain (ECD) of the IL-5 receptor α chain (IL-5R α) (human) (UniProt Q01344) (assay: grade under 'Affinity'; IC50 values of 500 nm or less; competition with [125I] IL-5 for IL-5Rα ECD (Example 3), assay not given).
B1 was tested, and the IC50 was < 500 nM.
With B2 the IC50 was < 500 nM.
In the case of B3, the IC50 is reported as < 500 nM.
